For this data set, the system named is Escherichia coli TOP10. The experiment in a line: shrunken log2 fold change of peptide-encoding DNA abundance (4.5 h post-induction vs induction); higher = less antimicrobial activity (less host growth inhibition). Conditions: time post-induction: 4.5 h; library: site-saturation at positions 5, 18, 19, 20.
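Further: peptides expressed intracellularly from a pBAD plasmid library in pooled LB shake-flask culture, induced with 0.3% L-arabinose, DNA abundance read by NGS, three biological replicates, DESeq2 with apeglm shrinkage.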

Consider RRIRIRPPRLPRPRPRPDAKPRP, for which the “shrunken log2 fold change” value stood at 0.0898.

Consider RRIRIRPPRLPRPRPRPPKCPRP, for which the “shrunken log2 fold change” value was -0.101.

Regarding RRIRIRPPRLPRPRPRPIAIPRP, the “shrunken log2 fold change” value was -0.257.

In the case of RRIRNRPPRLPRPRPRPKNGPRP, the “shrunken log2 fold change” value turned out to be 0.96.

Regarding RRIRMRPPRLPRPRPRPQWSPRP, the “shrunken log2 fold change” value was determined as 0.0117.

RRIRGRPPRLPRPRPRPSHLPRP: the “shrunken log2 fold change” value was -0.158.

For the sequence RRIRVRPPRLPRPRPRPTDWPRP, the “shrunken log2 fold change” value was determined as 0.255.

As to RRIRSRPPRLPRPRPRPPTYPRP, the “shrunken log2 fold change” value was -0.243.

Take RRIRARPPRLPRPRPRPTMDPRP: the “shrunken log2 fold change” value is -0.037.

For the sequence RRIRSRPPRLPRPRPRPGGQPRP, the “shrunken log2 fold change” value turned out to be 0.279.

As to RRIRPRPPRLPRPRPRPEDCPRP, the “shrunken log2 fold change” value is -0.0873.

Turning to RRIRVRPPRLPRPRPRPVGPPRP, the “shrunken log2 fold change” value is 0.0843.

As to RRIRNRPPRLPRPRPRPEKRPRP, the “shrunken log2 fold change” value was -0.0252.

For RRIRLRPPRLPRPRPRPDYFPRP, the “shrunken log2 fold change” value was -0.146.

For the sequence RRIRQRPPRLPRPRPRPRACPRP, the “shrunken log2 fold change” value was 0.344.

On to RRIRFRPPRLPRPRPRPSFWPRP, for which the “shrunken log2 fold change” value was -0.0521.

Take RRIRDRPPRLPRPRPRPPDQPRP: the “shrunken log2 fold change” value came out at 0.72.

In the case of RRIRCRPPRLPRPRPRPKRDPRP, the “shrunken log2 fold change” value worked out at 5.21.

In the case of RRIRNRPPRLPRPRPRPNCDPRP, the “shrunken log2 fold change” value was -0.237.

Regarding RRIRARPPRLPRPRPRPEHGPRP, the “shrunken log2 fold change” value was found to be 0.0464.

RRIRRRPPRLPRPRPRPETQPRP: the “shrunken log2 fold change” value was 0.164.

Take RRIRWRPPRLPRPRPRPDYVPRP: the “shrunken log2 fold change” value was -0.208.

Take RRIRRRPPRLPRPRPRPITCPRP: the “shrunken log2 fold change” value is -0.307.

On to RRIRKRPPRLPRPRPRPQINPRP, for which the “shrunken log2 fold change” value is -0.159.

With RRIRCRPPRLPRPRPRPTIRPRP, the “shrunken log2 fold change” value is -0.312.

Consider RRIRYRPPRLPRPRPRPINSPRP, for which the “shrunken log2 fold change” value is -0.184.

As for RRIRHRPPRLPRPRPRPRCGPRP, the “shrunken log2 fold change” value is 0.202.

Consider RRIRERPPRLPRPRPRPPWCPRP, for which the “shrunken log2 fold change” value was 0.217.

Consider RRIRNRPPRLPRPRPRPFFPPRP, for which the “shrunken log2 fold change” value was -0.122.

RRIRHRPPRLPRPRPRPVKSPRP: the “shrunken log2 fold change” value was -0.0219.

With RRIRARPPRLPRPRPRPKSRPRP, the “shrunken log2 fold change” value was 0.474.

RRIRLRPPRLPRPRPRPNTAPRP: the “shrunken log2 fold change” value is -0.248.

In the case of RRIRARPPRLPRPRPRPFSMPRP, the “shrunken log2 fold change” value is -0.215.

Take RRIRYRPPRLPRPRPRPDWLPRP: the “shrunken log2 fold change” value is -0.0748.

Consider RRIRQRPPRLPRPRPRPMAGPRP, for which the “shrunken log2 fold change” value came to 0.132.

As for RRIRWRPPRLPRPRPRPWKEPRP, the “shrunken log2 fold change” value came to 0.162.

As to RRIRSRPPRLPRPRPRPAEPPRP, the “shrunken log2 fold change” value was -0.16.

In the case of RRIRVRPPRLPRPRPRPEYVPRP, the “shrunken log2 fold change” value is -0.153.

Consider RRIRCRPPRLPRPRPRPKDQPRP, for which the “shrunken log2 fold change” value is -0.0507.

RRIRVRPPRLPRPRPRPCSNPRP: the “shrunken log2 fold change” value is -0.411.

Turning to RRIRARPPRLPRPRPRPTITPRP, the “shrunken log2 fold change” value is 0.187.

Regarding RRIRRRPPRLPRPRPRPGHFPRP, the “shrunken log2 fold change” value is -0.204.

In the case of RRIRTRPPRLPRPRPRPLIIPRP, the “shrunken log2 fold change” value is -0.784.

Consider RRIRKRPPRLPRPRPRPSTEPRP, for which the “shrunken log2 fold change” value was found to be 0.136.

On to RRIRFRPPRLPRPRPRPPDWPRP, for which the “shrunken log2 fold change” value was found to be 0.701.

(Values after the supplement of paper PMC9112550, “Optimization of the antimicrobial peptide Bac7 by deep mutational scanning” (BMC Biology, 2022).)
